The values below come from the supplement of paper PMC6755084.

The labels stand for the following.
B1: F1*; the commonest letter at each place (parent)
chain: GAGACCGCAACTGAAAAGTTGTTATCACTTGTCGTAAGACACTTTGGATGGGTTGAAGTTCTGCACGTAGAAGCAAAAGGC

Variants of B1 are the subject of the data set. Kind of data set: fraction ligated after 30 min (ligated reads / total reads); higher = more ligase activity. The settings on record: with F1*sub RNA substrate (template-directed ligation), 42 °C. As for the experimental part: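 Chip-synthesised pool of F1* ligase ribozyme variants (all single and double substitutions, single, double and triple deletions in the catalytic core and GAA bulge, plus designed variants) was transcribed with T7 and reacted as a pool with excess substrate F1*sub for 30 min at 42 C in 50 mM EPPS pH 8.5, 25 mM MgCl2. Ligated and unligated bands were separated by PAGE, barcoded by RT and deep sequenced; fraction ligated = ligated reads / total reads per variant, relative activity = FL / FL of wild type (0.826). Sequences are the DNA template of the ribozyme.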
Turning to GAGACCGCAACTGAAAAGTTGTTATCCCTTGTCGTAAGACACTTTTGATGGGTTGAAGTTCTGCACGTAGAAGCAAAAGGC, the fraction ligated is 0.78.
To GAGACCGCAACTGAAAAGTTGTTATCACTTGTCGTAAGTCACTTAGGATGGGTTGAAGTTCTGCACGTAGAAGCAAAAGGC belongs 0.744; to GAGACCGCAACTGAAAAGTTGTTATCACTTGTTGTAAGGCACTTTGGATGGGTTGAAGTTCTGCACGTAGAAGCAAAAGGC, 0.833; to GAGACCGCAACTGAAAAGTTGTTATCACTTGTTGTAAGCCACTTTGGATGGGTTGAAGTTCTGCACGTAGAAGCAAAAGGC, 0.804.
On to GAGACCGCAACTGAAAAGTTGTTATCACTTGTCGTAAGACACTTTGGATGGGTTACCGTTCTGCACGTAGAAGCAAAAGGC, for which the fraction ligated was found to be 0.0438.
The figure for GAGACCGCAACTGAAAAGTTGTTATTACGTGTCGTAAGACACTTTGGATGGGTTGAAGTTCTGCACGTAGAAGCAAAAGGC is 0.816; for GAGACCGCAACTGAAAAGTTGTTATCACTTGTCGAAAGACACTTTGGATGGGTTAAAGTTCTGCACGTAGAAGCAAAAGGC it is 0.868; for GAGACCGCAACTGAAAAGTTGTTATCACTTGTCTTAAGACACTTTGAATGGGTTGAAGTTCTGCACGTAGAAGCAAAAGGC it is 0.764.
To GAGACCGCAACTGAAAAGTTGTTAGCACTTGTCGTAAGACACTTTTGATGGGTTGAAGTTCTGCACGTAGAAGCAAAAGGC belongs 0.134.
As to GAGACCGCAACTGAAAAGTTGTTGTCACTTGTCGTAAGACACATTGGATGGGTTGAAGTTCTGCACGTAGAAGCAAAAGGC, the fraction ligated came to 0.765.
The figure for GAGACCGCAACTGAAAAGTTGTTATCTCTTGTCGGAAGACACTTTGGATGGGTTGAAGTTCTGCACGTAGAAGCAAAAGGC is 0.804; for GAGACCGCAACTGAAAAGTTGTTATCACTTGTCGTCAGACACTTGGGATGGGTTGAAGTTCTGCACGTAGAAGCAAAAGGC it is 0.362.
To GAGACCGCAACTGAAAAGTTGTTATGATTTGTCGTAAGACACTTTGGATGGGTTGAAGTTCTGCACGTAGAAGCAAAAGGC belongs 0.558; to GAGACCGCAACTGAAAAGTTGTTATCACTTGTCGTAAGACACTTTGGAAGGGTTGAAGTTCTGCACGTAGAAGCAAAAGGC, 0.777.
The figure for GAGACCGCAACTGAAAAGTTGTTATCACTTTTCGTAAGATACTTTGGATGGGTTGAAGTTCTGCACGTAGAAGCAAAAGGC is 0.829; for GAGACCGCAACTGAAAAGTTGTTATCACCTGTGGTAAGACACTTTGGATGGGTTGAAGTTCTGCACGTAGAAGCAAAAGGC it is 0.827; for GAGACCGCAACTGAAAAGTTGTTATCACTTGTTGTAAGACACGTTGGATGGGTTGAAGTTCTGCACGTAGAAGCAAAAGGC it is 0.78.
As for GAGACCGCAACTGAAAAGTTGTTATCACTTCTCGTAAGACACCTTGGATGGGTTGAAGTTCTGCACGTAGAAGCAAAAGGC, the fraction ligated was 0.811.
To GAGACCGCAACTGAAAAGTTGTTATCACTTTTCGTAAGTCACTTTGGATGGGTTGAAGTTCTGCACGTAGAAGCAAAAGGC belongs 0.792; to GAGACCGCAACTGAAAAGTTGTTATCACTTGTCGTAACACCCTTTGGATGGGTTGAAGTTCTGCACGTAGAAGCAAAAGGC, 0.807; to GAGACCGCAACTGAAAAGTTGTTATCACTTGTCGTACGACACTGTGGATGGGTTGAAGTTCTGCACGTAGAAGCAAAAGGC, 0.859.
To GAGACCGCAACTGAAAAGTTGTTATCACTTGTAGTAAGACACTTTGGATGGGTTTAAGTTCTGCACGTAGAAGCAAAAGGC belongs 0.809; to GAGACCGCAACTGAAAAGTTGTTATCACGTGTCGTAAGACACTTTGGATGGGTTGAAGTTCTGCACGTAGAAGCAAAAGGC, 0.829; to GAGACCGCAACTGAAAAGTTGTTATCTCTTGTTGTAAGACACTTTGGATGGGTTGAAGTTCTGCACGTAGAAGCAAAAGGC, 0.867.
To GAGACCGCAACTGAAAAGTTGTTATCACTTGTCGTAAGACACCGTGGATGGGTTGAAGTTCTGCACGTAGAAGCAAAAGGC belongs 0.836; to GAGACCGCAACTGAAAAGTTGTTATCACTTGTAGTAAGTCACTTTGGATGGGTTGAAGTTCTGCACGTAGAAGCAAAAGGC, 0.852.
For the variant GAGACCGCAACTGAAAAGTTGTTATCACCTGTCGTAACACACTTTGGATGGGTTGAAGTTCTGCACGTAGAAGCAAAAGGC, the fraction ligated was determined as 0.828.
The figure for GAGACCGCAACTGAAAAGTTGTTATCCCTTGTCGTAAGACAGTTTGGATGGGTTGAAGTTCTGCACGTAGAAGCAAAAGGC is 0.831.
To GAGACCGCAACTGAAAAGTTGTTATCACTTGTCGTAAGAAACTTTGGCTGGGTTGAAGTTCTGCACGTAGAAGCAAAAGGC belongs 0.658.
To GAGACCGCAACTGAAAAGTTGTTATCACTTGTCGTAAGAAACTTCGGATGGGTTGAAGTTCTGCACGTAGAAGCAAAAGGC belongs 0.358; to GAGACCGCAACTGAAAAGTTGTTATCGCTTGTCGTAAGACGCTTTGGATGGGTTGAAGTTCTGCACGTAGAAGCAAAAGGC, 0.791; to GAGACCGCAACTGAAAAGTTGTTACCACTTGTCGTAAGACACGTTGGATGGGTTGAAGTTCTGCACGTAGAAGCAAAAGGC, 0.8.
For GAGACCGCAACTGAAAAGTTGTAATCACTTGTCGAAAGACACTTTGGATGGGTTGAAGTTCTGCACGTAGAAGCAAAAGGC, the fraction ligated stood at 0.827.
With GAGACCGCAACTGAAAAGTTGTTATCACTTGTCGTAAGACACTTTGGATGGGTTGAATTTCTGCACGTAGAAGCAAAAGGC, the fraction ligated was 0.834.
